For this test, the target named is Y2-like receptor population expressed by human SK-N-Be(2) neuroblastoma cells. In words: 125I-PYY displacement, SK-N-Be(2) membranes.

Where no end group is shown, it is not given here.

B1: porcine PYY13-36 (peptide, UniProt P68005 13-36, looked up)
peptide: SPEELSRYYASLRHYLNLVTRQRY-NH2
B1: the Ki (in general, the dissociation constant of the complex between target and ligand, obtained from inhibition or displacement) was found to be 0.86 nM.

These data come from US6913892.
